The subject of this test is IRAK-M. In words: IRAK-M nuclear localization in DC2.4 cells. Format: cell-based, C57BL/6. To be noted: DC2.4 cells, after IL-33 induction. Here is the method:
Suppl em enta ry Figur e 3. a DAPI IR AK-M Pin1 Mergeb […]
Supplementary Figure 3. Pin1 targets IRAK-M and promotes its nuclear translocation upon IL-33 induction.
(a) Immunostaining for IRAK-M and Pin1 in DC2.4 cells before and after IL-33 treatment. ( b) DC2.4 cells were treated with IL-33 and subjected to nuclear/cytoplasmic fractionation, followed by Western blot for IRAK-M with actin as a cytoplasmic marker and Fox1 as a nuclear marker. C- cytoplasmic; N- Nuclear.
(c) Cytospin slides from BALF of the treated WT mice as indicated, were co stained for DC205 and IRAK-M.
(d) IRAK-M or its mutants S110E or P111A were stably expressed in DC2.4 cells and their localization and Pin1 localization were monitored by immunostaining. (e) GFP-IRAK-M were expressed in Pin1 KO MEFs either with or without RFP-Pin1 as indicated, and their localization was monitored. Scale = 50 µm.
(also on this page, place not known: Control +IL-33: b DAPIe MergeGFP RFP GFP- GFP-IRAK-M/ RFP MergeIRAK-M Pin1DAPI ControlIL-33 Mergec Supplementary Figure IRAK-M IRAK-M (b) IL-33 IRAK-M IRAK-M Pin1) […]

B1: IL-33: Recombinant mouse IL-33 purchased from BioLegend (protein, UniProt Q8BVZ5 1-266, looked up)
Interleukin-33: MRPRMKYSNSKISPAKFSSTAGEALVPPCKIRRSQQKTKEFCHVYCMRLRSGLTIRKETSYFRKEPTKRYSLKSGTKHEENFSAYPRDSRKRSLLGSIQAFAASVDTLSIQGTSLLTQSPASLSTYNDQSVSFVLENGCYVINVDDSGKDQEQDQVLLRYYESPCPASQSGDGVDGKKLMVNMSPIKDTDIWLHANDKDYSVELQRGDVSPPEQAFFVLHKKSSDFVSFECKNLPGTYIGVKDNQLALVEEKDESCNNIMFKLSKI
For B1, the IRAK-M nuclear localization result is reported as “also evident in the nucleus”.

The values are drawn from article PMC5913134, “The IL-33-PIN1-IRAK-M axis is critical for type 2 immunity in IL-33-induced allergic airway inflammation” (Nature Communications, 2018).
